Data as given in article PMC11666352.

What was measured:
Test in all cases: stopped-flow fluorescence anisotropy
Conditions in all cases: T17 carries SIMA; Kd: 5 mM Tricine-KOH pH 8.0, 100 mM KCl, 3.4 mM MgCl2, 0.1 mM each dNTP, 0.01% Tween 20, 20 nM hairpin, 55 C (SYTO 13 1/5000 listed in the shared buffer)
[1] = target: Taq pol E708Q-D732N E708Q;D732N (UniProt P19821)
[2] = target: Taq pol D578S-R728Q-M747V D578S;R728Q;M747V (UniProt P19821)
Taq pol R660S R660S = Taq pol R660S R660S (UniProt P19821)
[3] = target: Taq pol D578N-V783I D578N;V783I (UniProt P19821)
Taq pol WT = Taq pol WT (UniProt P19821)
[4] = target: Taq pol D578S-R728Q-M747Q D578S;R728Q;M747Q (UniProt P19821)
Taq pol F667M F667M = Taq pol F667M F667M (UniProt P19821)
Taq pol M747D M747D = Taq pol M747D M747D (UniProt P19821)
Taq pol R660V R660V = Taq pol R660V R660V (UniProt P19821)
[5] = target: Taq pol E507K-A570G-M747Q E507K;A570G;M747Q (UniProt P19821)
Taq pol E507Q E507Q = Taq pol E507Q E507Q (UniProt P19821)
[6] = target: Taq pol E507Q-S515N-D578S E507Q;S515N;D578S (UniProt P19821)
[7] = target: Taq pol E742K-A743R E742K;A743R (UniProt P19821)
[8] = target: Taq pol S515N-M747S S515N;M747S (UniProt P19821)
Taq pol S515F S515F = Taq pol S515F S515F (UniProt P19821)
[9] = target: Taq pol D578Q-D732N D578Q;D732N (UniProt P19821)
Taq pol D732N D732N = Taq pol D732N D732N (UniProt P19821)
[10] = target: Taq pol S515D-K540M S515D;K540M (UniProt P19821)
Taq pol M747Q M747Q = Taq pol M747Q M747Q (UniProt P19821)
Taq pol I707L I707L = Taq pol I707L I707L (UniProt P19821)
Taq pol E708L E708L = Taq pol E708L E708L (UniProt P19821)
Taq pol E626K E626K = Taq pol E626K E626K (UniProt P19821)
Taq pol F667A F667A = Taq pol F667A F667A (UniProt P19821)
[11] = target: Taq pol D578H-M747Q D578H;M747Q (UniProt P19821)
Taq pol E507K E507K = Taq pol E507K E507K (UniProt P19821)
Taq pol H639F H639F = Taq pol H639F H639F (UniProt P19821)
[12] = target: Taq pol E507K-A570T-M747Q E507K;A570T;M747Q (UniProt P19821)
[13] = target: Taq pol E507Q-D578S-I614M E507Q;D578S;I614M (UniProt P19821)
Taq pol M747E M747E = Taq pol M747E M747E (UniProt P19821)
[14] = target: Taq pol E507K-D732N E507K;D732N (UniProt P19821)
[15] = target: Taq pol E507K-R536K-R660V E507K;R536K;R660V (UniProt P19821)
[16] = target: Taq pol F667I-R728N-M747S F667I;R728N;M747S (UniProt P19821)
Taq pol E507D E507D = Taq pol E507D E507D (UniProt P19821)
Taq pol D578W D578W = Taq pol D578W D578W (UniProt P19821)
Taq pol H639Y H639Y = Taq pol H639Y H639Y (UniProt P19821)
[17] = target: Taq pol V586N-M747T V586N;M747T (UniProt P19821)
Taq pol S515N S515N = Taq pol S515N S515N (UniProt P19821)
Taq pol D578K D578K = Taq pol D578K D578K (UniProt P19821)
Taq pol D578N D578N = Taq pol D578N D578N (UniProt P19821)
[18] = target: Taq pol E507Q-D578S-R728Q E507Q;D578S;R728Q (UniProt P19821)
Taq pol H639A H639A = Taq pol H639A H639A (UniProt P19821)
[19] = target: Taq pol E507R-R573K-E708Q E507R;R573K;E708Q (UniProt P19821)
Taq pol F667Y F667Y = Taq pol F667Y F667Y (UniProt P19821)
[20] = target: Taq pol R573K-D578N R573K;D578N (UniProt P19821)
Taq pol S515D S515D = Taq pol S515D S515D (UniProt P19821)
[21] = target: Taq pol E507K-D578E E507K;D578E (UniProt P19821)
Taq pol E708D E708D = Taq pol E708D E708D (UniProt P19821)

In the case of “GCTATGCGTGAGCGCTTTTGCGCTCACGCATAGC [H-Kd hairpin]”, the Kd [1] is reported as 4.33 nM, the Kd [2] is reported as 13.8 nM and the Kd (Taq pol R660S R660S) is reported as 10.6 nM. It also gave a Kd [3] of 2.19 nM, a Kd (Taq pol WT) of 6.19 nM and a Kd [4] of 10.3 nM. For the same sequence, the Kd (Taq pol F667M F667M) was 8.79 nM, the Kd (Taq pol M747D M747D) was 29.6 nM and the Kd (Taq pol R660V R660V) was 6.21 nM. The Kd [5] was 5.15 nM, the Kd (Taq pol E507Q E507Q) was 4.78 nM and the Kd [6] was 2.91 nM. It also gave a Kd [7] of 0.51 nM, a Kd [8] of 1.93 nM and a Kd (Taq pol S515F S515F) of 211 nM. The Kd [9] was 0.8 nM, the Kd (Taq pol D732N D732N) was 2.6 nM and the Kd [10] was over 200 nM. For the same sequence, the Kd (Taq pol M747Q M747Q) was 4.41 nM, the Kd (Taq pol I707L I707L) was 8.54 nM and the Kd (Taq pol E708L E708L) was 6.82 nM. It also gave a Kd (Taq pol E626K E626K) of 5.74 nM, a Kd (Taq pol F667A F667A) of 11.1 nM and a Kd [11] of 3.29 nM. For the same sequence, the Kd (Taq pol E507K E507K) was 3.38 nM, the Kd (Taq pol H639F H639F) was 6.55 nM and the Kd [12] was 1.53 nM. It also gave a Kd [13] of 1.17 nM, a Kd (Taq pol M747E M747E) of 25.5 nM and a Kd [14] of 1.69 nM. For the same sequence, the Kd [15] was 0.79 nM, the Kd [16] was 14.4 nM and the Kd (Taq pol E507D E507D) was 21.4 nM. For the same sequence, the Kd (Taq pol D578W D578W) was 4.99 nM, the Kd (Taq pol H639Y H639Y) was 7.46 nM and the Kd [17] was 14.1 nM. For the same sequence, the Kd (Taq pol S515N S515N) was 6.71 nM, the Kd (Taq pol D578K D578K) was 4.2 nM and the Kd (Taq pol D578N D578N) was 4.26 nM. It also gave a Kd [18] of 6.29 nM, a Kd (Taq pol H639A H639A) of 8.14 nM and a Kd [19] of 0.96 nM. It also gave a Kd (Taq pol F667Y F667Y) of 11.7 nM, a Kd [20] of 4.33 nM and a Kd (Taq pol S515D S515D) of 80.7 nM. For the same sequence, the Kd [21] was 1.07 nM and the Kd (Taq pol E708D E708D) was 4.51 nM.
